{"source": "the supplement of paper PMC9170038", "test_system": "MS2 coat protein", "experiment": "apparent KD of MS2 coat protein; designed switch direction (-1 OFF switch, 1 ON switch): -1; higher = weaker reporter binding", "summary_of_the_method": "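The buffer was Tris-HCl pH 7.5 with KCl, MgCl2, BSA, DTT, tRNA and Tween-20. In it, SNAP-549-labelled MS2 coat protein was titrated in doubling steps from 0.7 or 1.5 nM to 3 µM over chip-bound RNA switches transcribed by stalled E. coli RNA polymerase on Illumina chips. Apparent KD is the per-design median over clusters of curve fits to normalised fluorescence.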", "key": {"[1]": {"conditions": "input ligand: microRNA oligo, concentration not stated"}, "[2]": {"conditions": "Eterna round: R95, input ligand: FMN 200 uM"}, "[3]": {"conditions": "Eterna round: R95, input ligand: microRNA oligo, concentration not stated"}, "[4]": {"conditions": "Eterna round: R95, input ligand: none"}}, "data": [{"sequence": "UUUCGGCAUGUAGGAUAUGGAUCCGAUUAGGAUUUAGAAGGACAUGAGGAUCACCCAUGUGCAUUUAAUUGGUCAUUACCGUUU [EXclNG1-LROPPY08] (Eterna round: R96, puzzle: Exclusion NG 1)", "values": [{"measurement": "apparent KD of MS2 coat protein", "setting": "[1]", "result": 41.9, "unit": "nM"}]}, {"sequence": "GCAGCUAAGUGUAAUAACACAAUACAUGAGGAUCACCCAUGUGAGGAUAUGGACUGGAUUACAGUCCAGAAGGCACAAUGCUGC [Zipper Style 4] (Eterna round: R96, puzzle: Exclusion NG 3)", "values": [{"measurement": "apparent KD of MS2 coat protein", "setting": "input ligand: FMN 200 uM", "result": 17.2, "unit": "nM"}, {"measurement": "apparent KD of MS2 coat protein", "setting": "[1]", "result": 16.2, "unit": "nM"}, {"measurement": "apparent KD of MS2 coat protein", "setting": "input ligand: none", "result": 20.9, "unit": "nM"}]}, {"sequence": "UCGGAUUCAGGAUAUUGCACAUGUGACAUGAGGAUCACCCAUGUUCCCUUAUUUGGUCACCAAGAAGGGAGUUUAU [Eternabot (L2) Solution 34] (Eterna round: R97, puzzle: Exclusion 5)", "values": [{"measurement": "apparent KD of MS2 coat protein", "setting": "input ligand: FMN 200 uM", "result": 157, "unit": "nM"}, {"measurement": "apparent KD of MS2 coat protein", "setting": "input ligand: none", "result": 152, "unit": "nM"}]}, {"sequence": "UUAUACAAGCAAAGAUCCCACAUGAGGAUCACCCAUGUGCUCGUCUUAUAAGGAUCUGUGACGAAAGUCACGGAUCC [Mat - Sensor, turn-off var - Eli Mod - D101] (Eterna round: R97, puzzle: Sensor, turn-off variant 1)", "values": [{"measurement": "apparent KD of MS2 coat protein", "setting": "input ligand: FMN 200 uM", "result": 43.3, "unit": "nM"}, {"measurement": "apparent KD of MS2 coat protein", "setting": "input ligand: none", "result": 35.7, "unit": "nM"}]}, {"sequence": "ACUGGUCGAGGAUAUACAUGACGUGCUUCGGCACGAGAUCUACAUGAGGAUCACCCAUGUAGAAGGCGACCAGU [E2/11-A2] (Eterna round: R97, puzzle: Exclusion 2)", "values": [{"measurement": "apparent KD of MS2 coat protein", "setting": "input ligand: FMN 200 uM", "result": 735, "unit": "nM"}, {"measurement": "apparent KD of MS2 coat protein", "setting": "input ligand: none", "result": 65, "unit": "nM"}]}, {"sequence": "ACAUUACAUGAGGAUCACCCAUGUGAGGAUAUGGAGCGGUAGUGUCCUGUCGCGUACACCAGAAGGCGCGGGUG [1st #48] (Eterna round: R97, puzzle: Exclusion 1)", "values": [{"measurement": "apparent KD of MS2 coat protein", "setting": "input ligand: FMN 200 uM", "result": 282, "unit": "nM"}, {"measurement": "apparent KD of MS2 coat protein", "setting": "input ligand: none", "result": 90.6, "unit": "nM"}]}, {"sequence": "GAGUGCUGAGGAUAUACAUGAGGAUCACCCAUGUACUUCAGCUAGGAGACUAGCAUUGGUAGAAGGCAGUACUC [Mod of lroppy 22 - Jieux - Exclusion 3] (Eterna round: R97, puzzle: Exclusion 3)", "values": [{"measurement": "apparent KD of MS2 coat protein", "setting": "input ligand: FMN 200 uM", "result": 20.7, "unit": "nM"}, {"measurement": "apparent KD of MS2 coat protein", "setting": "input ligand: none", "result": 14.2, "unit": "nM"}]}, {"sequence": "GCCUUAUCCGUCAGGAUAUACAGCCGCUCCUUGUUGUAGAAGGGACAUGAGGAUCACCCAUGUACGUACCAUUG [alecazam5] (Eterna round: R97, puzzle: Brourd's mod of Exclusion 4)", "values": [{"measurement": "apparent KD of MS2 coat protein", "setting": "input ligand: FMN 200 uM", "result": 25.4, "unit": "nM"}, {"measurement": "apparent KD of MS2 coat protein", "setting": "input ligand: none", "result": 24.7, "unit": "nM"}]}, {"sequence": "UUAUUAUAUGUAGGAUAUGCAUAUUGUUGUUAUGCAGAAGGACAUGAGGAUCACCCAUGUAUAUUGUUGUUAUAUAUUAUAUAU [Title] (Eterna round: R96, puzzle: Exclusion NG 1)", "values": [{"measurement": "apparent KD of MS2 coat protein", "setting": "input ligand: FMN 200 uM", "result": 27.1, "unit": "nM"}, {"measurement": "apparent KD of MS2 coat protein", "setting": "[1]", "result": 18.6, "unit": "nM"}, {"measurement": "apparent KD of MS2 coat protein", "setting": "input ligand: none", "result": 22.3, "unit": "nM"}]}, {"sequence": "UGAGUGCUGCGAGGAUAUACAUGAGGAUCACCCAUGUAAUCGUGUGAGGCUAUGCCUCACACGAAGUAGAAGGCGCAGUACUCU [Mat - Exclusion NG 2 - Mod of JL - D16] (Eterna round: R96, puzzle: Exclusion NG 2)", "values": [{"measurement": "apparent KD of MS2 coat protein", "setting": "input ligand: FMN 200 uM", "result": 9.98, "unit": "nM"}, {"measurement": "apparent KD of MS2 coat protein", "setting": "[1]", "result": 8.33, "unit": "nM"}, {"measurement": "apparent KD of MS2 coat protein", "setting": "input ligand: none", "result": 9.63, "unit": "nM"}]}, {"sequence": "CUUUUGUGAGGAUAUUAAUAGUAAGUAAAUAAAAUUAUUACUAAGAAGGCACAUGAGGAUCACCCAUGUUUCUC [EX4 #83] (Eterna round: R97, puzzle: Exclusion 4)", "values": [{"measurement": "apparent KD of MS2 coat protein", "setting": "input ligand: FMN 200 uM", "result": 76.8, "unit": "nM"}, {"measurement": "apparent KD of MS2 coat protein", "setting": "input ligand: none", "result": 41.8, "unit": "nM"}]}, {"sequence": "ACAAGCUUUUUGCUCGUCUUGUAGAAACGUGAGAGCGAGACAUGAGGAUCACCCAUGUAAAGGCAGUAGGUGGAGAU [JR_SV3TOV2_Sub026] (puzzle: Sensor v3, turn-off variant 2)", "values": [{"measurement": "apparent KD of MS2 coat protein", "setting": "[2]", "result": 36.9, "unit": "nM"}, {"measurement": "apparent KD of MS2 coat protein", "setting": "[3]", "result": 64.4, "unit": "nM"}, {"measurement": "apparent KD of MS2 coat protein", "setting": "[4]", "result": 58.2, "unit": "nM"}]}, {"sequence": "AGUAACUAUCACGAAAGUGAUAGUUACACAAGCAGUGAAACAUGAGGAUCACCCAUGUCCUCAUUUGCUCGUCUUAU [Sensor 3 - 25] (puzzle: Sensor v3, turn-off variant 2)", "values": [{"measurement": "apparent KD of MS2 coat protein", "setting": "[2]", "result": 53.1, "unit": "nM"}, {"measurement": "apparent KD of MS2 coat protein", "setting": "[3]", "result": 390, "unit": "nM"}, {"measurement": "apparent KD of MS2 coat protein", "setting": "[4]", "result": 52.2, "unit": "nM"}]}]}
